Results reported in patent US20110293610A1 (published 2011).
Positions count from the first letter of the chain named.

B1: I061E07 (scFv)
scFv: QVQLQQSGAEVKKTGASVKVSCKASGYIFADYYVHWVRQAAGQGLEWMGWINPNTGSTKYAQKFQDRVTMTRDTSIKTVYMELRRLRSDDTALYYCARATYDPLTGYSFDGFDIWGKGTMVTVSSGGGGSGGGGSGGGGSQSVLTQPPSASGTPGQRVTISCSGSSSNIGSNTVNWYQRLPGAAPQLLIYNNDQRPSGIPDRFSGSKSGTSGSLVISGLQSEDEADYYCASWDDSLNGRVFGGGTKLTVLG
B2: I007H08 (scFv)
scFv: QVQLQQSGPGLVKPSQILSLTCAISGDSVASNGAAWNWIRQSPSRGLEWLGRTYYRSKWYVDYAVSVKSRITINPDTSKNQFSLQLNSVTPEDTAVYYCARDRYDILTGYYYYGMDVWGQGTMVTVSSGGGGSGGGGSGGGGSQSALTQPASVSGSRGQSITISCTGTTGDVGGYDYVSWYQQHPGKAPKLLIYGNSNRPSGVPDRFSASKSGNTASLTISGLQAEDEADYFCNTYAPPGIIMFGGGTKLTVLG
B3: I008A11 (scFv)
scFv: B2 scFv with N234S
B4: I061H01 (scFv)
scFv: QVQLVQSGGGLVKPGGSLRLSCAASGFTFSNAWMSWVRQAPGKGLQWVGRIKSKTDGGTTDYAAPVKGRFTISRDDSKNTLYLQMNSLKTEDTAVYYCTTFNPTYDILTGYYIGGYFQHWGQGTMVTVSSGGGGSGGGGSGGGGSQSVLTQPASVSGSPGQSITISCTGTSSDVGGYNYVSWYQQHPGKAPKLMIYEGSKRPSGVSNRFSGSKSGNTASLTISGLQAEDEADYYCSSYTTRSTRVFGGGTQLTVLG
notes: also called 1061H01
B5: I031C03 (scFv)
scFv: QMQLVQSGAEVRKPGSSVKVSCKASGGSFSSHVFSWVRQAPGQGLEWVGGITPKFATPNYAQKFQHRVTITADELTRTVFMDLSGLRSEDTAVYYCARGYDSSAFRAFDIWGQGTLVTVSSGGGGSGGGGSGGGGSAQSVLTQPPSVSAAPGQKVTISCSGSSSNIGNNYVSWYQQFPGTAPKLLIYDNNNRPSGVPDRFSGSKSGTSATLGITGLQTGDEADYYCGTWDRSLSVVVFGGGTKVTVLG
B6: I018C02 (scFv)
scFv: QVQLQQSGSELKKPGASVIVSCKVSGYSLTKMSMHWVRQSPGEGLEWVGGIDPETRQPVYAQKFQGRVTITKDTSASAAYMELSSLGSEDTALYYCARATYDPLTGYSFDGFDIWGQGTLVTVSSGGGGSGGGGSGGGGSQSVLTQPASVSGSPGQSITISCTGTSSDVGGYNYVSWYQQHPGKAPKLMIYEGSKRPSGVSNRFSGSKSGNTASLTISGLQAEDEADYYCSSYTTRSTRVFGGGTKLTVLG
B7: I016F04 (scFv)
scFv: B6 scFv with I19K
B8: I006D07 (scFv)
scFv: EVQLVESGGGVVQPGGSLRLSCAASGFTVNSYAMHWVRQAPGKGLQWVAVIPYDGSKKYYADSVKGRFTVSRDNSKNTLYLQMNSLRAEDTAVYYCARSHYDILTGLNYWYFDLWGRGTLVTVSSGGGGSGGGGSGGGGSSELTQDPAVSVALGQTVRITCQGDSLRSYYASWYQQKPGQAPVLVIYGKNNRPSGIPDRFSGSSSGNTASLTITGAQAEDEADYYCNSRGSSGNHVVFGGGTKLTVLG
B9: I006D08 (scFv)
scFv: QVQLQQSGAEVKKPGSSVRVSCKASGGTFNNNAINWVRQAPGQGLEWMGGIIPMFGTAKYSQNFQGRVAITADESTSTASMELSSLRSEDTAVYYCARSRDLLLFPHYGMDVWGRGTMVTVSSGGGGSGGGGSGGGGSAFSSELTQDPAVSVALGQTVRVTCQGDSLRSYYASWYQQKPGQAPVLVIYGKNNRPSGIPDRFSGSSSGNTASLTITGAQAEDEADYYCNSRDSSGNHWVFGGGTELTVLG

Molecular target: T1, biotinylated B Lymphocyte Stimulator, soluble form (human, UniProt Q9Y275 134-285, biotinylated with NHS-biotin, molar ratio 20:1 biotin:protein)
T1 construct: also called bio-B Lymphocyte Stimulator; free B Lymphocyte Stimulator
Assay: phage scFv, receptor binding inhibition on IM9 cells
Method: Fifty-five μl of each appropriate phage supernatant was added to each well and the final volume in each well was 65 μl. Plates were then incubated at room temperature for 30 minutes.
Plates were washed three times in PBST and three times in PBS, tapped dry and 50 μl of streptavidin-Delfia (Wallac) was added to each well at 1:1000 dilution in the Manufacturer's assay buffer. The plates were then incubated at room temperature for 1 hour and washed six times in Delfia wash solution (Wallac). After tapping the plates dry, 100 μl per well of Delfia enhancement solution (Wallac) was added. The plates were gently tapped to encourage micelle formation, incubated at room temperature for 10 minutes, and fluorescence read on a Wallac 1420 workstation at […].

| Binder | binding result |
| --- | --- |
| B1 | binds |
| B2 | binds |
| B3 | binds |
| B4 | binds |
| B5 | binds |
| B6 | binds |
| B7 | binds |
| B8 | binds |
| B9 | binds |
